Patent US20150018285A1 (CARMEL HAIFA UNIVERSITY ECONOMIC, published 2015)

Columns and labels:
[1] = biological target: T1, X-linked inhibitor of apoptosis protein (XIAP) (human, UniProt P98170 1-497); test: IP of the mitochondrial fraction with anti-Bcl-2 antibody, Western blot (FIG. 4E)
T1 construct: Endogenous XIAP in cell lysates; also called IAP3; BIRC
Method: Mitochondrial fraction was immunoprecipitated using anti-Bcl-2 antibody. The precipitate was analyzed by Western blotting.

[2] = biological target: T2, B-cell lymphoma-extra large (Bcl-xL) (human, UniProt Q07817 1-233); test: IP with monoclonal anti-ARTS antibody from HeLa wt lysate, Western blot (FIG. 9); binding still seen after 24 h of ABT-263
T2 construct: also called Bch xL

[3] = biological target: T1, X-linked inhibitor of apoptosis protein …; test: IP with anti-ARTS monoclonal antibody from COS-7 cells transfected with the 6-Myc-ARTS construct; the partner is endogenous in COS-7 (FIG. 4B)
Method: FIG. 4B. […] The precipitate was analyzed by Western blotting.

[4] = biological target: T3, B-cell CLL/lymphoma 2 (Bcl-2) (human, UniProt P10415 1-239); test: immunoprecipitation of transfected HeLa lysates with anti-Bcl-2 antibody, Western blot with anti-ARTS (FIG. 11A)
T3 construct: Used as endogenous Bcl-2 (HeLa, BT-549) or from a transfected Bcl-2 construct; also called Bch 2; endogenous Bcl-2
T3 sequence (P10415 whole entry): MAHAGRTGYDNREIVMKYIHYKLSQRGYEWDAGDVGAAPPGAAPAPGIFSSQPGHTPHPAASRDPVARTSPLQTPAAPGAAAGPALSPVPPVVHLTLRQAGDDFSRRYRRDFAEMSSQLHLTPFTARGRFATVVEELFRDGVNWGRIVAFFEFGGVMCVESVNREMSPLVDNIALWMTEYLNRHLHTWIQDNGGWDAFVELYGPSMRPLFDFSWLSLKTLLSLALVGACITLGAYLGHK

T1 sequence (P98170 whole entry): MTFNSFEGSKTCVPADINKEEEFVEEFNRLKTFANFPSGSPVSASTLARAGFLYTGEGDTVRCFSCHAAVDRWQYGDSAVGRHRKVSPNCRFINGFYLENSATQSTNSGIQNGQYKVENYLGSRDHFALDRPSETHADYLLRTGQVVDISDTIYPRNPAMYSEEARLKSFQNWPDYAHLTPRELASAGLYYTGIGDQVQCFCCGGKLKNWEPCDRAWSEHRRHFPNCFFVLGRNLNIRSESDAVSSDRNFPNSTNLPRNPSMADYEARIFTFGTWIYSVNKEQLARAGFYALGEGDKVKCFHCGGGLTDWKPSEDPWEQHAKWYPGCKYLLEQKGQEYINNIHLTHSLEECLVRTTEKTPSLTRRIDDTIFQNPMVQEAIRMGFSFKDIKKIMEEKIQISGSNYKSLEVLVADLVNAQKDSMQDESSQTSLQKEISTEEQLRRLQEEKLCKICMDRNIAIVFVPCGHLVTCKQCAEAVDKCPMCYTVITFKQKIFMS
T2 sequence (Q07817 whole entry G70A): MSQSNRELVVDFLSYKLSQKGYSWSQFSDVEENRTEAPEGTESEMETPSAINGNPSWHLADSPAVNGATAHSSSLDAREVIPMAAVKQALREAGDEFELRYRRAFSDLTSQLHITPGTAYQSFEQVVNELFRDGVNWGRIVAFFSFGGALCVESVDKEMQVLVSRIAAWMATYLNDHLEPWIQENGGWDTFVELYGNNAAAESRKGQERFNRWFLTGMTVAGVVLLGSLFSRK

B1: Apoptosis Related Protein in the TGF-beta Signaling Pathway (ARTS) (other)
chain: MIKRFLEDTTDDGELSKFVKDFSGNASCHPPEAKTWASRPQVPEPRPQAPDLYDDDLEFRPPSRPQSSDNQQYFCAPAPLSPSARPRSPWGKLDPYDSSEDDKEYVGFATLPNQVHRKSVKKGFDFTLMVAGESGLGKSTLVNSLFLTDLYRDRKLLGAEERIMQTVEITKHAVDIEEKGVRLRLTIVDTPGFGDAVNNTECWKPVAEYIDQQFEQYFRDESGLNRKNIQDNRVHCCLYFISPFGHGYGPSLRLLAPPGAVKGTGQEHQGQGCH
notes: also called FL ARTS; full length ARTS
binding result [1]: binds
binding result [2]: binds

B2: 6-Myc-ARTS (other)
chain: B1 chain
notes: Expressed by transient transfection in COS-7 cells; also called pSC2-6Myc ARTS; not shown: 6xMyc tag of pSC2-6Myc
binding result [3]: binds

B3: 128 amino acids N' terminus deletion mutated ARTS (other)
chain: MVAGESGLGKSTLVNSLFLTDLYRDRKLLGAEERIMQTVEITKHAVDIEEKGVRLRLTIVDTPGFGDAVNNTECWKPVAEYIDQQFEQYFRDESGLNRKNIQDNRVHCCLYFISPFGHGYGPSLRLLAPPGAVKGTGQEHQGQGCH
binding result [4]: no binding
